Where two headings read alike, the source gives them in different places.
B1: kinase domain of wildtype chicken c-Src, residues 251-533 (domain or fragment, UniProt P00523 251-533, looked up)
chain: QTQGLAKDAWEIPRESLRLEVKLGQGCFGEVWMGTWNGTTRVAIKTLKPGTMSPEAFLQEAQVMKKLRHEKLVQLYAVVSEEPIYIVTEYMSKGSLLDFLKGEMGKYLRLPQLVDMAAQIASGMAYVERMNYVHRDLRAANILVGENLVCKVADFGLARLIEDNEYTARQGAKFPIKWTAPEAALYGRFTIKSDVWSFGILLTELTTKGRVPYPGMVNREVLDQVERGYRMPCPPECPESLHDLMCQCWRKDPEERPTFEYLQAFLEDYFTSTEPQYQPGENL

Legend:
Assay in all cases: SPR
[1] = molecular target: B1
[2] = molecular target: T1, Csk construct lacking the SH3 domain (SH2 and kinase domains), residues 68-450 (UniProt P41240 68-450)
[3] = molecular target: T2, full-length Csk (C-terminal Src Kinase), residues 1-450 (UniProt P41240 1-450)
[4] = molecular target: T1, Csk construct lacking the SH3 domain …; remark: listed apart in the source
[5] = molecular target: T2, full-length Csk (C-terminal Src …); remark: listed apart in the source

| Kd [1] [µM] | Kd [2] [µM] | Kd [3] [µM] | Kd [4] [µM] | Kd [5] [µM] | Binder |
| --- | --- | --- | --- | --- | --- |
| ~70 | – | – | – | – | kinase domain of Csk, residues 187-450 (domain or fragment, UniProt P41240 187-450, looked up) GWALNMKELKLLQTIGKGEFGDVMLGDYRGNKVAVKCIKNDATAQAFLAEASVMTQLRHSNLVQLLGVIVEEKGGLYIVTEYMAKGSLVDYLRSRGRSVLGGDCLLKFSLDVCEAMEYLEGNNFVHRDLAARNVLVSEDNVAKVSDFGLTKEASSTQDTGKLPVKWTAPEALREKKFSTKSDVWSFGILLWEIYSFGRVPYPRIPLKDVVPRVEKGYKMDAPDGCPPAVYEVMKNCWHLDAAMRPSFLQLREQLEHIKTHELHL |
| – | ~4 | ~4 | ~30 | ~30 | B1 |
